# Substitutions are numbered along the chain they refer to.
# B1: AAV-binding protein No. 58 (AVR2 + Ile319Phe) (receptor)
# chain: MGSAGESVQFTLPKNEVQLNAYVLQEPPKGETCTYDWQLITHPRDYSGEMEGKHSQILKLSKLTPGLYEFKVIVEGQNAHSEGYVNVTVKPEPRKNRPPIAIVSPQFQEISLPTTSTVIDGSQSTDDDKIVQYHWEELKGPLREEKISEDTAILKLSKLVPGNYTFSLTVVDSDGATNSTTANLTVNKAVDHHHHHH
# B2: AAV-binding protein No. 144 (AVR8g + Val383Ala, Gln415Arg) (receptor)
# chain: B1 chain with V8D, F10I, K53E, K62N, V74A, K90E, Q106R, S167R, N178D
# B3: AAV-binding protein No. 145 (AVR8g + Trp346Cys, Arg353Cys, His389Arg) (receptor)
# chain: B1 chain with V8D, F10I, W37C, R44C, K53E, K62N, H80R, K90E, S167R, N178D
# B4: AAV-binding protein No. 76 (AVR2 + Asn492Asp) (receptor)
# chain: B1 chain with F10I, N183D
# B5: AAV-binding protein No. 65 (AVR2 + Val332Glu) (receptor)
# chain: B1 chain with F10I, V23E
# B6: AAV-binding protein No. 59 (AVR2 + Ile319Asn) (receptor)
# chain: B1 chain with F10N
# B7: AAV-binding protein No. 124 (AVR8g + Gln441Arg) (receptor)
# chain: B1 chain with V8D, F10I, K53E, K62N, K90E, Q132R, S167R, N178D
# B8: AAV-binding protein No. 122 (AVR8g + Gln386Arg) (receptor)
# chain: B1 chain with V8D, F10I, K53E, K62N, Q77R, K90E, S167R, N178D
# B9: AAV-binding protein No. 133 (AVR8g + Gln327Leu, Lys(Asn)371Asp) (receptor)
# chain: B1 chain with V8D, F10I, Q18L, K53E, K62D, K90E, S167R, N178D
# notes: Asn371 of AVR8g replaced by Asp
# B10: AVR10 (AAV-binding protein No. 143; AVR8g + Val381Ala, Ile382Val) (receptor)
# chain: B1 chain with V8D, F10I, K53E, K62N, V72A, I73V, K90E, S167R, N178D
# B11: AAV-binding protein No. 136 (AVR8g + Glu335Val, Thr343Ser) (receptor)
# chain: B1 chain with V8D, F10I, E26V, T34S, K53E, K62N, K90E, S167R, N178D
# B12: AAV-binding protein No. 66 (AVR2 + Leu333Pro) (receptor)
# chain: B1 chain with F10I, L24P
# B13: AAV-binding protein No. 146 (AVR8g + Leu372Gln, Leu376Pro, Val394Asp) (receptor)
# chain: B1 chain with V8D, F10I, K53E, K62N, L63Q, L67P, V85D, K90E, S167R, N178D
# B14: AAV-binding protein No. 60 (AVR2 + Lys323Glu) (receptor)
# chain: B1 chain with F10I, K14E
# B15: AAV-binding protein No. 126 (AVR8g + Lys448Glu) (receptor)
# chain: B1 chain with V8D, F10I, K53E, K62N, K90E, K139E, S167R, N178D
# B16: AAV-binding protein No. 141 (AVR8g + Leu376Pro, Gly(Ser)390Gly) (receptor)
# chain: B1 chain with V8D, F10I, K53E, K62N, L67P, S81G, K90E, S167R, N178D
# notes: Gly(Ser)390Gly read as Ser390 of AVR8g back to the wild-type Gly, so Gly390Ser is not applied
# B17: AAV-binding protein No. 69 (AVR2 + Thr350Ser) (receptor)
# chain: B1 chain with F10I, T41S
# B18: AAV-binding protein No. 118 (AVR8g + Glu378Gly) (receptor)
# chain: B1 chain with V8D, F10I, K53E, K62N, E69G, K90E, S167R, N178D
# B19: AAV-binding protein No. 61 (AVR2 + Leu328Gln) (receptor)
# chain: B1 chain with F10I, L19Q
# B20: AAV-binding protein No. 114 (AVR8g + Leu372Pro) (receptor)
# chain: B1 chain with V8D, F10I, K53E, K62N, L63P, K90E, S167R, N178D
# B21: AAV-binding protein No. 119 (AVR8g + Phe379Ser) (receptor)
# chain: B1 chain with V8D, F10I, K53E, K62N, F70S, K90E, S167R, N178D
# B22: AAV-binding protein No. 64 (AVR2 + Val332Ala) (receptor)
# chain: B1 chain with F10I, V23A
# B23: AAV-binding protein No. 132 (AVR8g + Gln327His, Glu378Val) (receptor)
# chain: B1 chain with V8D, F10I, Q18H, K53E, K62N, E69V, K90E, S167R, N178D
# B24: AAV-binding protein No. 67 (AVR2 + Pro337Gln) (receptor)
# chain: B1 chain with F10I, P28Q
# B25: AAV-binding protein No. 149 (AVR8g + Val394Ile, Asn395Ser, Thr426Ala) (receptor)
# chain: B1 chain with V8D, F10I, K53E, K62N, V85I, N86S, K90E, T117A, S167R, N178D
# B26: AAV-binding protein No. 138 (AVR8g + Gly361Cys, Gly(Ser)390Gly) (receptor)
# chain: B1 chain with V8D, F10I, G52C, K53E, K62N, S81G, K90E, S167R, N178D
# notes: as for B16
# B27: AAV-binding protein No. 137 (AVR8g + Thr341Pro, Phe379Ser) (receptor)
# chain: B1 chain with V8D, F10I, T32P, K53E, K62N, F70S, K90E, S167R, N178D
# B28: AAV-binding protein No. 140 (AVR8g + Leu372Pro, Val396Ala) (receptor)
# chain: B1 chain with V8D, F10I, K53E, K62N, L63P, V87A, K90E, S167R, N178D
# What was measured:
# [1] = biological target: T1, VLP2 (virus-like particles of AAV2) (AAV2, UniProt P03135 1-735; P03135 1-598; P03135 1-533); experiment: ELISA on VLP2; binding after pH 3.0 51.1°C 15 min / untreated;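 further: binding of the heat-treated AAV-binding protein to VLP2, expressed as a percentage of the binding of the same protein without heating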
# T1 construct: Empty AAV2 capsid; background says about 60 protein molecules, VP1:VP2:VP3 = 1:1:10; Immobilised on the ELISA plate
# T1 sequence (P03135 whole entry, chain 1 of 3): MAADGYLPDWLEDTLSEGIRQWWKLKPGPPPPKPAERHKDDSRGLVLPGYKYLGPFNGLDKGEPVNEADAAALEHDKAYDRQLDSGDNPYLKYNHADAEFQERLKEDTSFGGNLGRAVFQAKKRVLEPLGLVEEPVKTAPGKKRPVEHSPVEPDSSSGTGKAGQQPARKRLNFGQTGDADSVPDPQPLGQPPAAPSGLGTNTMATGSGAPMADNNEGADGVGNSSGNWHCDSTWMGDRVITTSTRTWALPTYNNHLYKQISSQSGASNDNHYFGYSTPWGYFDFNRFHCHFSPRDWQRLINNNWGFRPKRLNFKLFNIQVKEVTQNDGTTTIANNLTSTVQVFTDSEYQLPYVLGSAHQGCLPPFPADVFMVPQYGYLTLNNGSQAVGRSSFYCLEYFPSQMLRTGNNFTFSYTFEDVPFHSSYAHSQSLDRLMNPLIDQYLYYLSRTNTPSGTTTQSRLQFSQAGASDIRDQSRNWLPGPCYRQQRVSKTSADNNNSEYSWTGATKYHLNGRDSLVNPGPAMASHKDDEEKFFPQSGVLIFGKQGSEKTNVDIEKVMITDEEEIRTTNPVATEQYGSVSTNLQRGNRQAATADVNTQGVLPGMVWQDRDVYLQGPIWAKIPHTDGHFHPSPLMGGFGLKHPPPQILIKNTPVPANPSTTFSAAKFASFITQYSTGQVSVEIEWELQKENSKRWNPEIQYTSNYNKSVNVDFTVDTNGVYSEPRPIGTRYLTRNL
# T1 sequence (P03135 139-735, tags left off, chain 2 of 3): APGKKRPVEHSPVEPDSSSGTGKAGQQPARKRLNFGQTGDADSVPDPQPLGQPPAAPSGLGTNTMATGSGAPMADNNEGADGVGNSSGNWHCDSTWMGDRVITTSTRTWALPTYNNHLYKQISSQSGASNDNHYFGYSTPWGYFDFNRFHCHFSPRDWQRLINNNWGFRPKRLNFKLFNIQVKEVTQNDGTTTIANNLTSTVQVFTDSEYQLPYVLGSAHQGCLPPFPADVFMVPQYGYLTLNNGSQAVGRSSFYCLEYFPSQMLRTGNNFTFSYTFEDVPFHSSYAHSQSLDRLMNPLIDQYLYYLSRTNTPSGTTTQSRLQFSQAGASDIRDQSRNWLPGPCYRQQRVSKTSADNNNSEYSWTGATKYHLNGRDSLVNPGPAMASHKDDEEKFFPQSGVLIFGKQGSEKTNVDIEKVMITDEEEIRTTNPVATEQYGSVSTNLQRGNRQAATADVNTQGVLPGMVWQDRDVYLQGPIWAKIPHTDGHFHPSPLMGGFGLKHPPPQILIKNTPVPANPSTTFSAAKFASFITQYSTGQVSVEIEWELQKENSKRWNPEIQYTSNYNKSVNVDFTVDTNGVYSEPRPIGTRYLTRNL
# T1 sequence (P03135 203-735, chain 3 of 3): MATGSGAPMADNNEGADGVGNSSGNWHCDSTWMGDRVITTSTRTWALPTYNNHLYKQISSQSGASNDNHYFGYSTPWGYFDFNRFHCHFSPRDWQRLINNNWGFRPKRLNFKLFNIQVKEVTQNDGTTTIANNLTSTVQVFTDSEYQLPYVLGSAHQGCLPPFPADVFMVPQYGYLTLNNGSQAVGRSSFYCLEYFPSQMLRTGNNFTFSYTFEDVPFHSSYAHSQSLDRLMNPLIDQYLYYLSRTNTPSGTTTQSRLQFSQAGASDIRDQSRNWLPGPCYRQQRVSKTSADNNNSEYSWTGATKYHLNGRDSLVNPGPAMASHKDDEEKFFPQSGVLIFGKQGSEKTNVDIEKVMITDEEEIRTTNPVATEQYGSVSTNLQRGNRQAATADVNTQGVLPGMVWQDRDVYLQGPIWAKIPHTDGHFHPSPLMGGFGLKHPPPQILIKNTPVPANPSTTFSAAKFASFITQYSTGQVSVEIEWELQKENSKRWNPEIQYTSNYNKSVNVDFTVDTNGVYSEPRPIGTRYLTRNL
# Protocol: The residual activity was calculated by dividing the binding activity of AAV-binding protein to VLP2 when the heat treatment was performed by the binding activity of AAV-binding protein to VLP2 when the heat treatment was not performed.
# [2] = biological target: T1, VLP2 (virus-like particles of AAV2); experiment: ELISA on VLP2; binding after pH 10.0 41.2°C 15 min / untreated
Binder,Residual activity [%] [1],Residual activity [%] [2]
B1,73.9%,–
B2,–,65.7%
B3,–,63.5%
B4,36.4%,–
B5,29.4%,–
B6,26.1%,–
B7,–,25.2%
B8,–,34.9%
B9,–,62.1%
B10,–,90.3%
B11,–,38.8%
B12,31.8%,–
B13,–,81.4%
B14,80.2%,–
B15,–,34.5%
B16,–,85%
B17,49.9%,–
B18,–,66.7%
B19,43.5%,–
B20,–,91.6%
B21,–,24.3%
B22,41.4%,–
B23,–,56.5%
B24,45.6%,–
B25,–,70.5%
B26,–,51.5%
B27,–,86.3%
B28,–,92.8%

# Reference: patent US20220402995A1 (TOSOH, published 2022)
